First the molecules themselves.
T1: co-expressed complex of MBP-tagged human BRMS1 (residues 51-179) and His6-tagged mouse SDS3 (residues 43-234) (human | mouse, UniProt Q9HCU9 51-179; Q8BR65 43-234)
T1 construct: BRMS1, human, residues 51-179; SDS3, mouse, residues 43-234; The two chains were co-expressed and then combined with the separately expressed ARID4A R2 domain; also called SDS3, BRMS1; source: E. coli, co-expressed, purified (Ni-NTA, SEC)
T1 sequence (looked up) 1: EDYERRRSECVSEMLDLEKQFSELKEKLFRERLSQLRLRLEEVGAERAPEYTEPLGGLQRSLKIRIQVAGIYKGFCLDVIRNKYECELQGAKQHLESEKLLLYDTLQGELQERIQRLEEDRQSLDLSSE
T1 sequence (looked up) 2: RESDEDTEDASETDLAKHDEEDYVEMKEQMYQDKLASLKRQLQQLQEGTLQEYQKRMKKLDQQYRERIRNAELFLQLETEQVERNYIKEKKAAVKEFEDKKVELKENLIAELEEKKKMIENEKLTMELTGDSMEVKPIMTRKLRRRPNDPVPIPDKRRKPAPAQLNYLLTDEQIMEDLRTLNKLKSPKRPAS

B1: His6-tagged human ARID4A R2 domain (residues 1164-1230) (domain or fragment, UniProt P29374 1164-1230, looked up)
chain: SPRTYKWSFQLNELDNMNSTERISFLQEKLQEIRKYYMSLKSEVATIDRRRKRLKKKDREVSHAGAS
notes: ARID4A, human, R2 domain, residues 1164-1230; Construct in the pMCSG7 vector; source: E. coli, expressed separately, purified (Ni-NTA, SEC)
B2: Rpd3 (enzyme, S. cerevisiae, UniProt P32561 1-433, looked up)
chain: MVYEATPFDPITVKPSDKRRVAYFYDADVGNYAYGAGHPMKPHRIRMAHSLIMNYGLYKKMEIYRAKPATKQEMCQFHTDEYIDFLSRVTPDNLEMFKRESVKFNVGDDCPVFDGLYEYCSISGGGSMEGAARLNRGKCDVAVNYAGGLHHAKKSEASGFCYLNDIVLGIIELLRYHPRVLYIDIDVHHGDGVEEAFYTTDRVMTCSFHKYGEFFPGTGELRDIGVGAGKNYAVNVPLRDGIDDATYRSVFEPVIKKIMEWYQPSAVVLQCGGDSLSGDRLGCFNLSMEGHANCVNYVKSFGIPMMVVGGGGYTMRNVARTWCFETGLLNNVVLDKDLPYNEYYEYYGPDYKLSVRPSNMFNVNTPEYLDKVMTNIFANLENTKYAPSVQLNHTPRDAEDLGDVEEDSAEAKDTKGGSQYARDLHVEHDNEFY
notes: Rpd3, histone deacetylase, the catalytic subunit of the S. cerevisiae Rpd3L complex; endogenous subunit; Present in two copies in the Rpd3L complex, one in each lobe; also called Rpd3-I; Rpd3-II
B3: Sap30 (natural protein, S. cerevisiae, UniProt P38429 1-201, looked up)
chain: MARPVNTNAETESRGRPTQGGGYASNNNGSCNNNNGSNNNNNNNNNNNNNSNNSNNNNGPTSSGRTNGKQRLTAAQQQYIKNLIETHITDNHPDLRPKSHPMDFEEYTDAFLRRYKDHFQLDVPDNLTLQGYLLGSKLGAKTYSYKRNTQGQHDKRIHKRDLANVVRRHFDEHSIKETDCIPQFIYKVKNQKKKFKMEFRG
notes: Sap30, subunit of the S. cerevisiae Rpd3L complex; endogenous subunit
B4: Rxt2 with a TAP tag at the C-terminus (natural protein, S. cerevisiae)
chain: MTIRSSMKNNAELESKSVLANESNIISTFTRRIIKEKSGNYQVLKRSLDGKLIYPEATGISSNRGNKLLQRSEVVTRRDLNNSKPMIEQTVFYNGSEHRLLQTNIVTDSRRKRIKFTPDINVEPVLVGDENDIDGSEKEDENITDEYYGEEDDDDLSKLVNVKEILTPILSLGDIINHKTISRTFSSPILKNLALQIILMIEKEQMSVVRYSQFLEVFLGDHPEPIYESNLNLPSYNHNLTLPEDRGASDEDDINNKNNINEVNSNSLSTEAGHINNGMEEFGEEDPFFALPRLEQSNALLSLLPSSSGSASISTLTAAEQQQLNEEIESARQLSQIALQRNKEFIRNLQKIRKSVIKANRIRGRILNWSREYLGISDDDITIPVALRVVKRGLISATTNKTTNFEEEIENTMEDGVVDDNEPDEEANRA
notes: Rxt2, subunit of the S. cerevisiae Rpd3L complex; expressed from the tagged strain; not shown: TAP tag, C-terminal, kept
B5: Rxt3 (natural protein, S. cerevisiae, UniProt Q07458 1-294, looked up)
chain: MSVSEQDPNRAYRETQSQIYKLQETLLNSARTKNKQEEGQESNTHSFPEQYMHYQNGRNSAYDLPNVSSQSVLAFTEKHYPNKLKNLGTLYYNRFKEGSFDEDSTSYSDRHSFPYNLYDNTLPPPFLPAIGIQNINNIATLKITYEDIQASFNNIESPRKRNNEIWGCDIYSDDSDPILVLRHCGFKIGAPSGGSFHKLRRTPVNVTNQDNVTGNLPLLEGTPFDLEVELLFLPTLQKYPSVKRFDITSREWGSEATVIHDGLSYGIYSIVIKQRLDRDKPHEPNGYIKNLKWT
notes: Rxt3, subunit of the S. cerevisiae Rpd3L complex; endogenous subunit
B6: Sds3 (natural protein, S. cerevisiae, UniProt P40505 1-327, looked up)
chain: MAIQKVSNKDLSRKDKRRFNIESKVNKIYQNFYSERDNQYKDRLTALQTDLTSLHQGDNGQYARQVRDLEEERDLELVRLRLFEEYRVSRSGIEFQEDIEKAKAEHEKLIKLCKERLYSSIEQKIKKLQEERLLMDVANVHSYAMNYSRPQYQKNTRSHTVSGWDSSSNEYGRDTANESATDTGAGNDRRTLRRRNASKDTRGNNNNQDESDFQTGNGSGSNGHGSRQGSQFPHFNNLTYKSGMNSDSDFLQGINEGTDLYAFLFGEKNPKDNANGNEKKKNRGAQRYSTKTAPPLQSLKPDEVTEDISLIRELTGQPPAPFRLRSD
notes: Sds3, subunit of the S. cerevisiae Rpd3L complex; endogenous subunit
B7: Pho23 (natural protein, S. cerevisiae, UniProt P50947 1-330, looked up)
chain: MSSPANLFPGLNDITDVLEEFPLATSRYLTLLHEIDAKCVHSMPNLNERIDKFLKKDFNKDHQTQVRLLNNINKIYEELMPSLEEKMHVSSIMLDNLDRLTSRLELAYEVAIKNTEIPRGLRLGVDNHPAMHLHHELMEKIESKSNSKSSQALKSESRREAMAANRRQGEHYSASTHQQDDSKNDANYGGSRHESQDHTGNNTNSRKRANAANTNNADPETKKRKRRVATTAVSPSTISTATAVNNGRIGTSTASRGVSSVGNSNNSRISRPKTNDYGEPLYCYCNQVAYGEMVGCDGADCELEWFHLPCIGLETLPKGKWYCDDCKKKL
notes: Pho23, subunit of the S. cerevisiae Rpd3L complex; endogenous subunit
B8: Dep1 (natural protein, S. cerevisiae, UniProt P31385 1-405, looked up)
chain: MSQQTPQESEQTTAKEQDLDQESVLSNIDFNTDLNHNLNLSEYCISSDAGTEKMDSDEEKSLANLPELKYAPKLSSLVKQETLTESLKRPHEDEKEAIDEAKKMKVPGENEDESKEEEKSQELEEAIDSKEKSTDARDEQGDEGDNEEENNEEDNENENEHTAPPALVMPSPIEMEEQRMTALKEITDIEYKFAQLRQKLYDNQLVRLQTELQMCLEGSHPELQVYYSKIAAIRDYKLHRAYQRQKYELSCINTETIATRTFIHQDFHKKVTDLRARLLNRTTQTWYDINKERRDMDIVIPDVNYHVPIKLDNKTLSCITGYASAAQLCYPGEPVAEDLACESIEYRYRANPVDKLEVIVDRMRLNNEISDLEGLRKYFHSFPGAPELNPLRDSEINDDFHQWAQ
notes: Dep1, subunit of the S. cerevisiae Rpd3L complex; endogenous subunit

Test [1] addresses T1, co-expressed complex of MBP-tagged …. In words: SEC; Ni-NTA purified proteins on a Superdex 75 GL column in 25 mM MOPS pH 7.5, 150 mM NaCl, 1 mM TCEP; co-elution. As to conditions: both partners purified. On the technique in general: SEC sorts molecules by how far they enter the pores of the column.
Test [2] has as its target T2, Sin3 (S. cerevisiae, UniProt P22579 1-1536).
T2 construct: Sin3, principal scaffolding subunit of the S. cerevisiae Rpd3L complex; endogenous subunit; Present in two copies in the Rpd3L complex, one in each lobe; also called Sin3-I; Sin3-II
In words: cryo-EM structure; Rpd3L complex purified by TAP, crosslinked on ice with 1 mM BS3 for 15 min, graphene oxide coated grid; map at 3.5 Å, lobes I and II focus refined to 3.4 Å. As to conditions: both partners purified.

In the test “Sds3” the target is B6. Described as above. The note with it: both partners purified.
The target of test [3] is B2. Put plainly: affinity purification with mass spectrometry; tandem affinity purification from S. cerevisiae lysate by the TAP tag on Rxt2 (IgG resin, TEV protease, calmodulin resin; washes with 500 to 750 mM KCl); the purified complex analysed by mass spectrometry. As to conditions: partners not purified.
Test [4] deals with T2, Sin3. The test is described as above. The note with it: partners not purified.
Test [5] has as its target B2. In words: cryo-EM structure; Rpd3L complex purified by TAP, crosslinked on ice with 1 mM BS3 for 15 min, graphene oxide coated grid; map at 3.5 Å, lobes I and II focus refined to 3.4 Å. The note with it: both partners purified.
The target of the test “Dep1” is B8. The test is described as above. The note with it: both partners purified.

T2 sequence (P22579 whole entry): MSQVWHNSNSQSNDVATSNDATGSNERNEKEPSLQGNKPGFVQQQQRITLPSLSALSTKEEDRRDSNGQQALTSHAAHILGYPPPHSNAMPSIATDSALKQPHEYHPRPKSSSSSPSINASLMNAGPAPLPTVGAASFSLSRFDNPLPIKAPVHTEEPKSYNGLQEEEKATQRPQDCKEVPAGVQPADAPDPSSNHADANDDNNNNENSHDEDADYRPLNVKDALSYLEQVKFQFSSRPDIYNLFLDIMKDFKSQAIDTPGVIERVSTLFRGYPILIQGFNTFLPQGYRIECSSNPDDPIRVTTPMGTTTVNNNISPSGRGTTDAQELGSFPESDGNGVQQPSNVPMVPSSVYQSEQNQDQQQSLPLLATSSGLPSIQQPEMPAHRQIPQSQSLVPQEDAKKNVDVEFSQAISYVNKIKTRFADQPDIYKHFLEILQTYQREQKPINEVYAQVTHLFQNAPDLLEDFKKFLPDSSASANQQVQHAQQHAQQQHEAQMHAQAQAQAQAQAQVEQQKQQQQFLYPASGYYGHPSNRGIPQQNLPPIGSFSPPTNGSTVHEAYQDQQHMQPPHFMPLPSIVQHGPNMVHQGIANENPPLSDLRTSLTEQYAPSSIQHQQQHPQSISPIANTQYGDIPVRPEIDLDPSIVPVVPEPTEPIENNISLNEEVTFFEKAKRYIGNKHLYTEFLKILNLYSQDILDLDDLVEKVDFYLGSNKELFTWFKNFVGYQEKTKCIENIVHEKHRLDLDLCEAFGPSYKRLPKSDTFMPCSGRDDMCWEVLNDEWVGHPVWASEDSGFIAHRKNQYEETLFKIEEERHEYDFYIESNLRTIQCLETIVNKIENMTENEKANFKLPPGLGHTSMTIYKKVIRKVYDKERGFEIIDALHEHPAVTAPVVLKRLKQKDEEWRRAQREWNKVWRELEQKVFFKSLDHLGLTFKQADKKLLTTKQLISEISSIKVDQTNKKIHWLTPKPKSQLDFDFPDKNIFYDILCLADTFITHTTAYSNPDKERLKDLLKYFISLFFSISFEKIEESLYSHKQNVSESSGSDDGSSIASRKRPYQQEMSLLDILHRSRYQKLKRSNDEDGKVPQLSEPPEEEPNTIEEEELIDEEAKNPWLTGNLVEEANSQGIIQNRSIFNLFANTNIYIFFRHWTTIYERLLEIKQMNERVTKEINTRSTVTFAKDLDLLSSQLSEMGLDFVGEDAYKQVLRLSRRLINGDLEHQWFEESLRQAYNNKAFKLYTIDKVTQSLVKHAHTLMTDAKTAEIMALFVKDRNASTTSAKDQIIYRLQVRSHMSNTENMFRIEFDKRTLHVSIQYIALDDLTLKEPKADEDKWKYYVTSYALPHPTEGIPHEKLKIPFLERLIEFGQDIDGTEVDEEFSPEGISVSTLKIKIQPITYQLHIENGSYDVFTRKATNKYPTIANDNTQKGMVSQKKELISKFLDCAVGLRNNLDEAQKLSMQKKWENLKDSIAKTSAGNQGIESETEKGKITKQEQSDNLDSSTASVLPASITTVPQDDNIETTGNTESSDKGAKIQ

As for B1, the binding result in test [1] is given as “binds”.

With B2, in the test with Sin3 [2], the binding result was “binds”.

As for B3, the binding result with Sin3 [2] and in the test with Sds3 was “binds” in each case.

On to B4, for which the binding result with Rpd3 [3] and in the test with Sin3 [4] was “binds” each time.

For the molecule B5, the binding result with Sin3 [2] was “binds”.

With B6, the binding result with Sin3 [2] is “binds”.

On to B7, for which the binding result in the test with Rpd3 [5] and in the test with Dep1 was “binds” throughout.

On to B8, for which the binding result in the test with Rpd3 [5] and with Sin3 [2] was “binds” throughout.

The values are drawn from PMC10224958, “Cryo-EM structure of the Saccharomyces cerevisiae Rpd3L histone deacetylase complex” (Nature Communications, 2023).
